Measured values from the nanobody polyreactivity screen of Harvey et al. (2022).

Experiment: yeast display, Sf9 membrane polyspecificity reagent, FACS + sequencing; frameworks hold sequencing errors
In short: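 Using colony PCR, genes from sorted yeast display clones were amplified, then sequenced on MiSeq at 2 × 250 and filtered by CDR length. The clones had been stained with 10% biotinylated, detergent-solubilized Sf9 membrane reagent for 1 hour at 4 °C and sorted by FACS into low and high (top ~1%) gates on anti-HA and streptavidin fluorescence. Polyreactivity labels come from the gate of origin.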

Row | Sequence | polyreactivity (PSR sort gate)
1 | QVQLVESGGGLVQAGGSLRLSCAASGRNFKYNAMGSYRTAPGKERELVAAISSGGSTKYADSVKGRFTISRDNATKTVYLQMNSLKPEDTAVYYCNAVYTPYRRSFYYWGQGTQVTVSS | high polyreactivity
2 | QVQLVESGGGLVQAGGSLRLSCAASGRNFRHYAMGWDRQAPGKERELVAAIRWSGGSTYYADSVKGRFTISRDNAKNTVYLQMNSLKPEETAVYYCATRDAVGHRPSGPYQLYDYWGQGTQVTVSS | low polyreactivity
3 | QVQLVESGGGLVQAGGSLRLSCAASGRNFRKYAMGWYRQAPGKERELVAAITSSGGSTYYADSVKGRFTISRDNAKNTVYLQMNSLKPVDTAVYYCAAQKRGSPGYRRDYWGQGTQVTVSS | high polyreactivity
4 | QVQLVESGGGLVQAGGSLRLSCAASGRNFRYYAMGWYRPAPGKERELVAAISGSGGSTYYADSVKGRFTISRDNAKNTVYLQMNSLKPEDTAVYYCNARYRIPSGEGDHWGQGTQVTVSS | low polyreactivity
5 | QVQLVESGGGLVQAGGSLRLSCAASGRNFSYYVMGWYRPAHGKERELVAAITSGGSTNYAHSVKGRFTISRDNAKNTVYLQMNSLKPEDTAVYYCNRAYTYINRLYGYWGQGTQVTVST | high polyreactivity
6 | QVQLVESGGGLVQAGGSLRLSCAASGRNFVAYTMGWYRQAPGKERELVAAISTNGGRTYYADSVKGRFTISRDNAKITVYLQMNSLKPEDTAVYYCAAYRGPRADYYWGQGTQVTVSS | high polyreactivity
7 | QVQLVESGGGLVQAGGSLRLSCAASGRNFVNYAMGWYRQAPGKERELVAVISRSGGGTNYADSVKGRYTISRDNAKNTVYLQMNSLKPEDTAVYYCAASRKYGYGYWGQGTQVTVSS | high polyreactivity
8 | QVQLVESGGGLVQAGGSLRLSCAASGRNFYYYAMGWYRQAPGKERELVATITGSGGNTYYADSVKGRFTISRDNAKNTVYLQMNSLKPEDTAVYFCNARLARGYWTPGKERPMEYWGQGTQVTVSS | low polyreactivity
9 | QVQLVESGGGLVQAGGSLRLSCAASGRNIQGYAMGWYRQAPGKESELVAAITLSGGSTYYADSVKGRFTISRDNAKNTVYLQMNSLKPEVTAVYYCNAYYPDEPSLYDYWGQGTQVTVSS | low polyreactivity
10 | QVQLVESGGGLVQAGGSLRLSCAASGRNIRRYTMGLYIQAPGKEREFVAAITWSGSSTNYADSVKGRFTISRDNAKNTVYLQMNSLKPEDTAVYYCAAENRRRRDDYWGQGTQVTVSS | high polyreactivity
11 | QVQLVESGGGLVQAGGSLRLSCAASGRNISYNAMGGYRQAPGKERELVAAISWGGGSTYYADSVMGRFTISRDNAKNTVFLHMNSLKQDDTAVYYCAKGWYRIKRNDYWGQGTQVTVSS | low polyreactivity
12 | QVQLVESGGGLVQAGGSLRLSCAASGRNYVPYAMGWYRQAPGKERELVAALSNSGGSTYYADSVKGRFTISRDNAKNTGYLQRNSLKPEYTAVYFCAPDGRYAYGYNHWGQGTQVTGSS | low polyreactivity
13 | QVQLVESGGGLVQAGGSLRLSCAASGRSFCTYAMGSYRQAPGKERELVAAITSGGSTNYADSVKGRFTISRDNAKNTVYLQMNSLKPEDTAVYYCAAVEYLRESDYWGQCTQVTVSS | low polyreactivity
14 | QVQLVESGGGLVQAGGSLRLSCAASGRSFGHYAMGWYRQAPGKERELVAAITTGGNTYYADSVKGRFTISRDNAKNTVYLQMNSLKPEDTAVYYCAKRGYPYKYKYWQVYAAYDYWGQGTQVTVSS | low polyreactivity
15 | QVQLVESGGGLVQAGGSLRLSCAASGRSFGKNAMGWYRQAPGKERELVAAISTSGGRTYYADSVKGRFTISRDNAKITFFLQMNSLKPEDTAVYYCNAKGWTRPPGYDYWGQGTQVTVSS | high polyreactivity
16 | QVQLVESGGGLVQAGGSLRLSCAASGRSFGVYAMGWYRQAPGKERELVAVISSGGSTTYADSVKGRFTISRDNAKNTVYLQMNSLKPEDTAVYYCAAVSYRRHFGPYNYWGQGTQVTVSS | low polyreactivity
17 | QVQLVESGGGLVQAGGSLRLSCAASGRSFKRYDMGGYIQAPGKERELVAAITGTGGSTYYADSVKGRFTISRDNAKNTVYLQMNSLKPEDPADYYCAARLYNTYSGFAFGYWGQGTQVTVSS | high polyreactivity
18 | QVQLVESGGGLVQAGGSLRLSCAASGRSFSYAMGWYRQAPGKERELVAAISYGGGGTYYADSVKGRFTISRDNAKNTVYLQMNSLKPEDTAVYYCNARQYRPWYPPYGYDYWGQGTQVTVSS | low polyreactivity
19 | QVQLVESGGGLVQAGGSLRLSCAASGRSFYTNVMGWYRQAPGKERELVAAISSAGTTYYADSVKGRFTISRDNAKNTVYLQMNSLKPVDSEVYYCAADQVAYYGFDYWGQGTQVTVST | low polyreactivity
20 | QVQLVESGGGLVQAGGSLRLSCAASGRSLRYYAMGWYRQAPGKERELVAVITRDGSTYYADSVKGRFTIPRDNAKNTVYLQMNSLKPEDTAVSYCVYGLTYRSFYYWGQGTQVTVSS | high polyreactivity
21 | QVQLVESGGGLVQAGGSLRLSCAASGRSNAMGWYRQAPGKERELVAAISTNGGSTYYADSVKGRFTISRDNAKNTVYLQMNSLKPEDTAVYYCAKRLGRDYTFGYWGQGTQVTVSS | high polyreactivity
22 | QVQLVESGGGLVQAGGSLRLSCAASGRSSTRNAMGWYRQAPGKERELVAAITRSGGGTYYADSVKGRFTISRDNAKNTVYLQMNSLKPEDTAVYYCAADQLSPSDGYEYWGQGTQVTVSS | low polyreactivity

Row | Sequence | polyreactivity (PSR sort gate)
23 | QVQLVESGGGLVQAGGSLRLSCAASGRTCFPYAMGWYRQAPGKERELVDAISSGGRTNYADSVKGRFTISRDNAKNTVYLQMNSLKPEDTAVYYCAARGYLRLYSYDYWGQGTQVTVSS | high polyreactivity
24 | QVQLVESGGGLVQAGGSLRLSCAASGRTCGYYAMGWYRQAPGKEREFVAVITWSGDSTYYADSVKGRFTISRDNAKNTVYLQMNSLKPEDTAVYNGNADSGNAGTAYDDYDYSGQGTQVTVSS | low polyreactivity
25 | QVQLVESGGGLVQAGGSLRLSCAASGRTCPRYGLGWYRQAPGKERELVATIRTGGRTNYADSVKGRFTISRDNAKNTVYLQMNSLKPEDTAVYYCATDSSKHPYSPTLLKFDYWGQGTQVTVSS | low polyreactivity
26 | QVQLVESGGGLVQAGGSLRLSCAASGRTDVAKGMGRYRQAPGKEKEMVAAINDGDVTYYADSVKGRFTISRDNAKNTVYLQMNSLKPEDTAVYYCAADIIYGYEVYTYTSDYWGQGTQVTVSS | low polyreactivity
27 | QVQLVESGGGLVQAGGSLRLSCAASGRTFAAYAMGWYRPAPGKERELVAGITSSSVRTYYADSVKGRFTISRDNAKNTVYLQMNSLKPEDTAVYYRTARADGSSSRWRPYSKFYYWGQGTQVTVSS | low polyreactivity
28 | QVQLVESGGGLVQAGGSLRLSCAASGRTFADYAMGWNRQAPGKEREFVAAITYSGGSTYYADSVKGRFTISRDNAKNTVYLQMNSLKPEDTAVYYCNARPGSSYWYDAQWGEYGYWGQGTQVTVSS | high polyreactivity
29 | QVQLVESGGGLVQAGGSLRLSCAASGRTFAEYAMGWYRQAPGKERELVAAISKRGGSTYYADSVKGRFTISRDNAKNTVYLQMNSLKPEDTAVYYCNKVNRVPSYGHEVGYWGQGTQVTVSS | high polyreactivity
30 | QVQLVESGGGLVQAGGSLRLSCAASGRTFAFNAMGWCRQAPGKDRELVAAISQGADSTYYADSVKGRFTISRDNAKNPVDLQMNSLKPEDTAVYYCAAEAQYNFYSYDYWGQGTQVTVSS | low polyreactivity
31 | QVQLVESGGGLVQAGGSLRLSCAASGRTFAFNAMGWYRPAPGKERELVAAIRWSGGCTYYADSVKGRFTISRDSPKNTVSLQMNTLKPEDTAVYYCAAYEKRLGYDYWGQGTQVTVSS | high polyreactivity
32 | QVQLVESGGGLVQAGGSLRLSCAASGRTFAFYAMGWYRQAPGKERELVASIRGGGGTNYADSVKGRFTISRDNAKNTVYLQMNSLKTEDTAVYYCAARGYGYRGYYYWGQGTQVTVSS | high polyreactivity
33 | QVQLVESGGGLVQAGGSLRLSCAASGRTFAFYAMGWYRQAPGKERELVASISSSGDRTYYADSVKGRFTISRDNAKNTVYLQMNSLKPEDTAVYYCAARWRYTYYYWGQGTQVTVSS | high polyreactivity
34 | QVQLVESGGGLVQAGGSLRLSCAASGRTFAGNAMGWYRQATGKERELVASITWTGGRTYYADSVKGRFTISRDNAKNTVYLQMNSLKPEDTAVYYCAARPDYYYFRGDYWGQGTQVTVSS | high polyreactivity
35 | QVQLVESGGGLVQAGGSLRLSCAASGRTFAINVMGWYRQAPGKEMELVASIRGRGGRTNYADSVKGRFTISRDNAKNSVYLQMNSLKPEDTAVYYCAAAYTGGGQYEYEYWGQGTQVTVSS | high polyreactivity
36 | QVQLVESGGGLVQAGGSLRLSCAASGRTFAIYAMGWYRQAPGKERELVATIRGGSTYYADSVKGRFTISRDNAKNTVYLQMNSLKPEDTAVYYCAAGWYRYYGGFGYWGQGTQVTVSS | high polyreactivity
37 | QVQLVESGGGLVQAGGSLRLSCAASGRTFALNTMGWYRQAPGKERELVAAITIGGSTYYADSVKGRFTISRDNAKNTVYLQMNSLKPEDTAVYYCAARTRGAWAYWGQGTQVTVSS | high polyreactivity
38 | QVQLVESGGGLVQAGGSLRLSCAASGRTFALYAMGWYRQAPGKERELVASISWRGGSTYYADSVKGRFTISRDNAKNTVYLQMNSLKPEDTAVYYCAADTWSYGPLNYRLEYWGQGTQVTVSS | low polyreactivity
39 | QVQLVESGGGLVQAGGSLRLSCAASGRTFALYTMGWYRQAPGKERELVAAINWSGTSTYYADSVKGRFTISRDTAKNTVYLQMNSLKPEDTAVYYCNARGQYNRLMDYWGQGTKVTVSS | low polyreactivity
40 | QVQLVESGGGLVQAGGSLRLSCAASGRTFANYAMGWYRQAPGKERELVAAISFSTVSTYYADSVKGRFTISRDNAKNTVYLQMNSLKPEDTAVYYCAARRLGYYRKVKELDYWGQGTQVTVSS | high polyreactivity
41 | QVQLVESGGGLVQAGGSLRLSCAASGRTFANYVMGWYRQAPGKERELVAGMTGSGGSTYYADSVKGRFTISRDNAKNTVYLQMNSLKPEDTAVYYCAKRYVYVASMGYWGQGTQVTVSS | high polyreactivity
42 | QVQLVESGGGLVQAGGSLRLSCAASGRTFAPYAMGWSRQAPGKEREFVAGITWSSSSTYADSVKGRFTISRDNAKNTVYLQMNSLKPEDTAVYYCAARHAKGGNRHYYWGQGTQVTVSS | high polyreactivity
43 | QVQLVESGGGLVQAGGSLRLSCAASGRTFAPYAMGWYRQAPGKERELVAAIRWTGTSTYYADSVKGRFTISRDNAKNTVYLQMNSLKPEDTAVYYCNADLYNREGWGQGTQVTVSS | high polyreactivity
